From patent publication US20180127503A1 (EUREKA THERAPEUTICS, published 2018)

Key:
[1] = biological target: T1, human ROR2 ECD-Fc fusion protein (human, UniProt Q01974 34-403); experiment: summary of the phage clone screening (ELISA)
T1 construct: Panning and phage ELISA antigen; also called human ROR2-ECD (phage ELISA); not shown: Fc part and any linker are not described

[2] = biological target: T2, human ROR1 ECD-Fc fusion protein (human, UniProt Q01973 30-406); experiment: summary of the phage clone screening (ELISA)
T2 construct: not shown: Fc part and any linker are not described

[3] = biological target: T1, human ROR2 ECD-Fc fusion protein; experiment: phage ELISA on coated ROR2 ECD-Fc

T1 sequence (Q01974 34-403): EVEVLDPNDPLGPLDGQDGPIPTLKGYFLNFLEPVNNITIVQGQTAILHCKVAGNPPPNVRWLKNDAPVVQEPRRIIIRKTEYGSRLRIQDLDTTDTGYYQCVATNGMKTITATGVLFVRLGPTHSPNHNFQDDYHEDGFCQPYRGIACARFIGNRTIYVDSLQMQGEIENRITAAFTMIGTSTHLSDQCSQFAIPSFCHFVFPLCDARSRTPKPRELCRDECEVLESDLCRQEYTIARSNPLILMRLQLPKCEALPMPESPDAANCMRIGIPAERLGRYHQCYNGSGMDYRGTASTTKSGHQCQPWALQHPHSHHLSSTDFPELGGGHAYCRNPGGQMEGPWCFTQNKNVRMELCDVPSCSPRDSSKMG
T2 sequence (Q01973 30-406): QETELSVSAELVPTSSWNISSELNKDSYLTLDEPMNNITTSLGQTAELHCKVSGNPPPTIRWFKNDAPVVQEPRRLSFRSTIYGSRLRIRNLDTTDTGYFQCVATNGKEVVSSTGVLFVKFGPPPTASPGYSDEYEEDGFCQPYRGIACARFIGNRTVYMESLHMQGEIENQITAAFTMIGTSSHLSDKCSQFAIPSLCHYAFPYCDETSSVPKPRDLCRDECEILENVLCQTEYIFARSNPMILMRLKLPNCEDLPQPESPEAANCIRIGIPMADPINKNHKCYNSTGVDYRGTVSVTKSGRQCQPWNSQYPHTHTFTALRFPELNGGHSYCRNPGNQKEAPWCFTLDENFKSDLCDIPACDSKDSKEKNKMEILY

Row | Binder | binding result [1] | binding result [2] | binding result [3]
1 | ROR2 clone #084 scFv phage antibody (scFv, V domains shown, also called clone #84; ROR2-84) VH: QVQLVESGGGLVQPGGSLRLSCAASGFTFSSYWMSWVRQAPGKGLEWVANIKQDGSEKYYVDSVRGRFTISRDNAKNSLYLQMNSLRAEDTAMYYCARGSFSYDSDLWGQGTLVTVSS VL: DVVMTQSPLSLPVTLGQPASISCRSSQSLVHSDGNTYLNWFQQRPGQSPRRLIYKVSSRDSGVPDRFSGTGSGTDFTLKISRVEAEDVGVYYCMQTTHWPPTFGQGTKVEIKR | binds |  | 
2 | ROR2 clone #159 scFv phage antibody (scFv, V domains shown, also called ROR2-159) VH: QMQLVQSGAEVKKPGASVKVSCKASGYTFTSYYMHWVRQAPGQGLEWMGIINPSGGSTSYAQKFQGRVTMTRDTSTSTVYMELSSLRSEDTAVYYCARGGYTGWSPSDPWGQGTLVTVSS VL: QSALTQPASVSGSPGQSITISCTGTSSDVGGYNYVSWYQQHPGKAPKFMIYDVSKRPSGVSNRFSGSKSGNTASLTISGLQAEDEADYYCGSFTSSITYVFGTGTKVTVLG | binds | binds | 
3 | ROR2 clone #121 scFv phage antibody (scFv, V domains shown, also called ROR2-121) VH: QVQLVQSGGGLVQPGGSLRLSCAATGFTFSSYAMSWVRQAPGKGLEWVSVISGSGGSTYYADSVKGRFTISRDNSKNTLYLQMNSLRADDTAVYYCARHYYSSDSWGQGTLVTVSS VL: SYVLTQPPSVSVSPGQTASVTCSGYRLREKYVSWYQQRPGHSPVLVIYEDTKRPSGIPERFSGSNSGDTATLTIRGTQAIDEADYYCQAWDSSVIFGGGTKLTVLG | binds |  | 
4 | ROR2 clone #016 scFv phage antibody (scFv, V domains shown, also called clone #16; ROR2-16) VH: EVQLVQSGAEVKKPGASVKVSCKASGYTFTDYYIHWVRQAPGQGLEWMGWMNPNSGNSVSAQKFQGRVTMTRDTSINTAYMELSSLTSDDTAVYYCARNSEWHPWGYYDYWGQGTLVTVSS VL: SSELTQDPAVSVALGQTVRITCQGDSLRSYYASWYQQKPGQAPVLVIYGKNNRPSGIPDRFSGSSSGNTASLTITGAQAEDEADYYCNSRDSSGNHLVFGGGTKLTVLG | binds | binds | 
5 | ROR2 clone #173 scFv phage antibody (scFv, V domains shown, also called ROR2-173) VH: QVQLVQSGAEVKKPGASVKVSCKASGYTFTSYGISWVRQAPGQGLEWMGWISAYNGNTNYAQKLQGRVTMTTDTSTSTAYMELRSLRSDDTAVYYCARHLGPMGMYDWSFDKWGQGTLVTVSS VL: QSVLTQPPSVSVAPGKTARITCGGDNIGRKSVHWYQQKPGQAPVLVIYYDSDRPSGIPERFSGSTSGNTATLTISRVEAGDEADYYCQVWDRSSDLYVFGTGTKVTVLG | binds |  | 
6 | ROR2 clone #096 scFv phage antibody (scFv, V domains shown, also called clone #96; ROR2-96) VH: EVQLVQSGGGLVQPGGSLRLSCAASGFSLNDYYMDWVRQAPGEGLEWVGRIRDKAHGDTTEYIASVKDRFIVSRDDSKNSLYLQMNSLKTEDTAMYYCARWVDDYQGYWIWSYHDFWGQGTLVTVSS VL: EIVLTQSPLSLPVTLGQPASISCRSSQSLAYSDGNTYLNWFHQRPGQSPRRLIYKVSKRDSGVPDRFSGSGSGTDFTLRISRVEAEDVGIYYCMQGTHWPHTFGPGTKVDIKR | binds |  | 
7 | ROR2 clone #024 scFv phage antibody (scFv, V domains shown, also called clone #24; ROR2-24) VH: EVQLVQSGAEVKKPGESLKISCKASGYSFSNYWIGWVRQMPGKGLEWMGIIYPDDSDTRYSPSVQGQVTISADKSISTAYLQWYSLKVADTAKYYCVRPRGAFDIWGQGTTVTVSS VL: EIVMTQSPATLSVSPGESATLSCRASQGVGINLAWYQQRPGQPPRLLIYDASNRATGIPARFSGSGSGTDFTLTISSLQAEDVAVYYCQQYYSFPWTFGQGTKVEIKR |  |  | binds
8 | ROR2 clone #093 scFv phage antibody (scFv, V domains shown, also called clone #93; ROR2-93) VH: QMQLVQSGGGVVQPGRSLRLSCAASGFTFSNYDMHWVRRAPGKGLEWVAVISYDGSNNYYADSVKGRFTISRDNSKNTLYLQMNSLRAEDTAVYYCARSSAWVGGGFLSGTDDWGQGTLVTVSS VL: EIVMTQSPATLSLSPGERATLSCGASQSVSSSYLAWYQQKPGLAPRLLIYDTSRRATGIPDRFSGSGSGTDFTLTISRLEPEDFAVYYCLHYGRSPPVTFGGGTKVEIKR | binds |  | 
